What was measured:
[1] = molecular target: human ErbB2 on BT474 human breast tumor cells (human) (UniProt P04626); assay: Scatchard analysis, 125I-labelled antibody on BT474 cell monolayers, 4 hours on ice
[2] = molecular target: human ErbB2 on BT474 human breast tumor cells (human) (UniProt P04626); assay: cell-based or functional assay

Kd [1] [nM]	% apoptosis of the BT474 cell population [2] [%]	proportion of S-phase cells (BT474) [2] [%]	Substance
6.5	41.9	5.4	anti-ErbB2 IgG1κ murine monoclonal antibody 4D5
–	60.5	64.9	anti-ErbB2 IgG1κ murine monoclonal antibody 7C2

From patent US20170190786A1
